molecular target: full-length GAS2 (GAS2-FL (1–314)) (mouse) (UniProt P11862); assay: SEC; Superdex 75 HR 10/300; 30 mM Tris-HCl pH 8.0, 300 mM KCl, 100 μM ZnCl2, 0.1% β-ME; molecular weight from a calibration with BSA, carbonic anhydrase and cytochrome c

stoichiometry N | Substance
2 | full-length GAS2 (GAS2-FL (1–314)) (from UniProt P11862 1-314) (natural protein)

molecular target: microtubules (MTs) polymerized from porcine brain tubulin (pig (porcine brains)) (UniProt Q2XVP4); assay: co-sedimentation; GAS2 proteins at different concentrations with Taxol-stabilized MTs in BRB80 with 1 mM GTP, room temperature, 20 min; 186,000 × g, 10 min, 25 °C; SDS-PAGE, one site-specific binding fit

Kd [µM] | Substance
27 | GAS2-GAR W257E (from UniProt P11862 198-314) (domain or fragment)
0.69 | GAS2-GAR domain (residues 198–314) (from UniProt P11862 198-314) (domain or fragment)
47 | GAS2-GAR R252E (from UniProt P11862 198-314) (domain or fragment)
2.69 | GAS2-GAR G255A (from UniProt P11862 198-314) (domain or fragment)
5 | GAS2-GAR R242E (from UniProt P11862 198-314) (domain or fragment)
10.6 | GAS2-GAR K266E (from UniProt P11862 198-314) (domain or fragment)
9.6 | GAS2-GAR G255E (from UniProt P11862 198-314) (domain or fragment)

From publication PMC12084551
